From PMC12110046 come the findings set out here.

The target of experiment [1] is eel LH/CGR-N306Q (eel).
Experiment [2] deals with eel LH/CGR-N312Q (eel).
In experiment [3] the target is eel LH/CGR-N49Q (eel).
The target of experiment [4] is eel lutropin/chorionic gonadotropin receptor, wild type (eel).
In experiment [5] the target is eel LH/CGR-N306Q (eel). The source holds these as a separate data set.
Experiment [6] deals with eel LH/CGR-N312Q (eel). The source holds these as a separate data set.
Experiment [7] deals with eel LH/CGR-N49Q (eel). This is another data set of the same source.
The target of experiment [8] is eel lutropin/chorionic gonadotropin receptor, wild type (eel). This is another data set of the same source.

On to recombinant eel LH (ligand), for which the EC50 of the cAMP response (HTRF), transfected CHO-K1 cells, rec-eel LH for 30 min in the experiment with eel LH/CGR-N306Q (eel) [1] is 0.233 µg/mL; in the experiment with eel LH/CGR-N312Q (eel) [2] it was 0.235 µg/mL; with eel LH/CGR-N49Q (eel) [3], 0.215 µg/mL; in experiment [4], 0.19 µg/mL. For the same substance, the pERK1/2 activity (HTRF), transfected HEK-293 cells, rec-eel LH 250 ng/mL for 0-30 min; peak at 5 min, fold over the basal response of LH/CGR-wt with eel LH/CGR-N201Q (eel) was found to be 2.6 fold; in the experiment with eel LH/CGR-N306Q (eel) [5], 3.1 fold; with eel LH/CGR-N312Q (eel) [6] it was 3.7 fold; in the experiment with eel LH/CGR-N49Q (eel) [7] it was 3.3 fold. Moreover, in experiment [8], the pERK1/2 activity (HTRF), transfected HEK-293 cells, rec-eel LH 250 ng/mL for 0-30 min; peak at 5 min, fold over the basal response amounted to 3.97 fold.
